Data reported in article PMC7443878 (Proceedings of the National Academy of Sciences of the …, 2020).

B1: His-MBP-RIPK3 (388–514) (domain or fragment)
chain: SSDSMAQPPQTPETSTFRNQMPSPTSTGTPSPGPRGNQGAERQGMNWSCRTPEPNPVTGRPLVNIYNCSGVQVGDNNYLTMQQTTALPTWGLAPSGKGRGLQHPPPVGSQEGPKDPEAWSRPQGWYN

Key:
MBP-MYC (1–144) = MBP-MYC (1–144) (UniProt P01106-1 1-144); test: pull-down
His-MBP-RIPK3 (388–514) = molecular target: B1; test: pull-down

Chain of MBP-MYC (1–144) (P01106 16-159): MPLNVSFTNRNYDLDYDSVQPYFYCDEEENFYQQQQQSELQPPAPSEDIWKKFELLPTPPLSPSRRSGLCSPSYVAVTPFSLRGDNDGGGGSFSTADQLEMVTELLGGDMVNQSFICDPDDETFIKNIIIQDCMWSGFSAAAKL

Row | binding result (MBP-MYC (1–144)) | binding result (His-MBP-RIPK3 (388–514)) | Binder
1 | binds | – | B1
2 | – | binds | recombinant MBP-RIPK1 RHIM domain (496–583) (domain or fragment) HMPSLHNIPVPETNYLGNTPTMPFSSLPPTDESIKYTIYNSTGIQIGAYNYMEIGGTSSSLLDSTNTNFKEEPAAKYQAIFDNTTSLT
